Test results from patent publication US20260116980A1 (BEONE MEDICINES I, published 2026).
Changes are numbered by the printed parent chain. Names may count otherwise. One block for each binder: values may come before it.

Experiments:
[1] = target: T1, human 4Ig-B7H3 on overexpressing cells (NK92mi/B7H3) (human, UniProt Q5ZPR3 29-534); experiment: FACS on human 4Ig-B7H3 overexpressing cells
T1 construct: also called Human B7H3; native B7H3
T1 sequence: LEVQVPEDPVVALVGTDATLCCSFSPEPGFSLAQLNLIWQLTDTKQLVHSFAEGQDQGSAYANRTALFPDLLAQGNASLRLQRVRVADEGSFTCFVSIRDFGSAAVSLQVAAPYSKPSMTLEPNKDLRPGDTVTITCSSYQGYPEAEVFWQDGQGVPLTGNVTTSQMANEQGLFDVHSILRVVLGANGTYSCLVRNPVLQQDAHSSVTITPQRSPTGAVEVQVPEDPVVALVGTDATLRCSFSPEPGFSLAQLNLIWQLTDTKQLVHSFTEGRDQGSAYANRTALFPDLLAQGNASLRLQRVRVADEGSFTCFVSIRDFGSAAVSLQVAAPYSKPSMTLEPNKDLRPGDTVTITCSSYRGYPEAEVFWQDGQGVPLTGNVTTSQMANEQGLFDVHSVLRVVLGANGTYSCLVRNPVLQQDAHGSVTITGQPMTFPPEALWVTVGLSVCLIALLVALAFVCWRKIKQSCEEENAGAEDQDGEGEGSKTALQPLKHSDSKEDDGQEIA
Procedure: (§1) The binding affinity of anti-B7H3 mAb to human 4Ig-B7H3 and cyno B7H3 overexpressing cell lines were determined by FACS. Briefly, human or cyno B7H3 overexpressing cells were incubated with serially diluted purified antibodies, washed, and incubated with anti-mouse IgG secondary Ab conjugated to APC. After incubation and washing, fluorescence was measured by flow cytometry.

[2] = target: T2, cyno B7H3 on overexpressing cells (cyno, UniProt A0A7N9CYV2 29-534); experiment: FACS on cyno B7H3 overexpressing cells
T2 sequence: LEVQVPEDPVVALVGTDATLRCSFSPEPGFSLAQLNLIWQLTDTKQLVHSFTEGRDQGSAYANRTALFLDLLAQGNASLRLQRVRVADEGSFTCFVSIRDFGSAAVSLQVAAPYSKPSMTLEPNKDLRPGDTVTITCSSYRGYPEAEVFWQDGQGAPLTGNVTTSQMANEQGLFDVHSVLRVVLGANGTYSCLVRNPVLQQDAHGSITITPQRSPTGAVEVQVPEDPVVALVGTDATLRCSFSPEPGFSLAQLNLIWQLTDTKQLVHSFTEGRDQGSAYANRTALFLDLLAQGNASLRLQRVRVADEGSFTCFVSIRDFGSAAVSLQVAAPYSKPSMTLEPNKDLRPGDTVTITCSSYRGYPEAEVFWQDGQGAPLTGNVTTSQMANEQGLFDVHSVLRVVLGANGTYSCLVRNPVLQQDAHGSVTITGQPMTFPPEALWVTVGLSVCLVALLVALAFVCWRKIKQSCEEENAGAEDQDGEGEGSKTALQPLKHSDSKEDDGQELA
Procedure: as §1

[3] = target: T3, human ECD-4Ig-B7H3-hFc (human, UniProt Q5ZPR3 29-466); experiment: SPR (BIAcore T-200), antibody captured by anti-mouse IgG Fc, antigen in flow, 1:1 Langmuir model
T3 construct: also called Human B7H3; human B7H3 antigen
T3 sequence: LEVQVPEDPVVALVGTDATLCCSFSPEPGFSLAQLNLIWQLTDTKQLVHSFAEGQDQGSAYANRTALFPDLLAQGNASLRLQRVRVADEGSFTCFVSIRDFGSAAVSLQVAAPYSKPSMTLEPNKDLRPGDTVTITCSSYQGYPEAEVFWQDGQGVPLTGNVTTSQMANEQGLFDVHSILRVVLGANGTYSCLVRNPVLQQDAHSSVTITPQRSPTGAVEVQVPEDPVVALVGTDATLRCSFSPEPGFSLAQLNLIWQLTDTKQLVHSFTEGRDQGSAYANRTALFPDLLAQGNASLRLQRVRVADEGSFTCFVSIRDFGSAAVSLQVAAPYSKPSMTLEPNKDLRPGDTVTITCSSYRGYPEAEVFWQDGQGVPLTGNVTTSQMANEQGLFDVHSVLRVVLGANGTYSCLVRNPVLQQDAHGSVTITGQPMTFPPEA
Source text: After immobilization, serial dilutions of the ectodomain of human or cyno B7H3 were passed over the chip. […] Thus, the light gray lines are serial dilutions of human B7H3 protein, and the dark gray lines are fitted curves corresponding to different human B7H3 concentrations. The dotted line is the highest concentration of B7H3 protein. The results were used to calculate the rates of association (Kon) and dissociation (Koff) for BGA-3295.
Briefly, anti-mouse IgG Fc antibody was immobilized on an activated CM5 biosensor chip (Cat. No. BR100530, GE Life Sciences). Purified antibodies were flowed over the chip surface and captured by anti-mouse IgG Fc antibody. Then a serial dilution of human ECD-4Ig-B7H3-hFc was flowed over the chip surface and changes in surface plasmon resonance signals were analyzed to calculate the association rates (kₒₙ) and dissociation rates (koff) by using the one-to-one Langmuir binding model (BIA Evaluation Software, GE Life Sciences). The equilibrium dissociation constant (KD) was calculated as the ratio koff/kₒₙ.

[4] = target: T4, ECD of human 4Ig-B7H3 (Sinobiological, Cat: 11188-H08H) (human, UniProt Q5ZPR3 29-466); experiment: SPR, antibody captured on anti-human Fc surface, Test 2
T4 construct: Bought protein; also called recombinant B7H3
T4 sequence: T3 sequence
Source text: (§2) For affinity determination, antibodies were captured by an anti-human Fc surface, and used in the affinity-assay based on surface plasmon resonance (SPR) technology. The results of SPR-determined binding profiles of anti-B7H3 antibodies to the ECD of human 4Ig-B7H3 (Sinobiological, Cat: 11188-H08H) are summarized in Table 5.

[5] = target: T1, human 4Ig-B7H3 on overexpressing cells …; experiment: FACS on live NK92mi/B7H3 cells, goat anti-human IgG detection, Test1
Procedure: (§3) Goat anti-human IgG was used as the second antibody to detect antibody binding to the cell surface. EC₅₀ values for dose-dependent binding to human native B7H3 were determined by fitting the dose-response data to the four-parameter logistic model with GraphPad Prism.

[6] = target: T4, ECD of human 4Ig-B7H3 (Sinobiological, …); experiment: SPR, antibody captured on anti-human Fc surface, Test 1
Source text: as §2

[7] = target: T1, human 4Ig-B7H3 on overexpressing cells …; experiment: FACS on live NK92mi/B7H3 cells, goat anti-human IgG detection, Test2
Procedure: as §3

EC50 [1]: 1.91 nM
EC50 [2]: 1.32 nM
Kd [3]: 0.0124 nM
koff [3]: 4.49e-06 s⁻¹
kon [3]: 363000 M⁻¹ s⁻¹
B1: BGA-3726 (purified anti-B7H3 mAb as used in Examples 2-4) (antibody, V domains shown)
VH: QVQLQESGPGLVKPSGTLSLTCAVSGGSISTSNWWNWVRQSPGKGLEWIGEIYPTGNTNYSPSLKSRVTISIDKSKNQFSLKLNSVTAADTAVYYCARGWNWFDPWGQGTLVTVSS
VL: EIVLTQSPGTLSLSPGERATLSCRTSQSINGILLAWYQQKPGQAPRLLIYGASSRATGIPDRFSGSGSGTDFTLSISRLEPEDFAVYYCQQYGSSPRTFGQGTKVEIK
notes: It was captured by anti-mouse IgG Fc in SPR and detected with anti-mouse IgG in FACS; The source mice make human variable and rat constant regions; also called BGA-3276

Kd [4]: 0.47 nM
koff [4]: 0.000207 s⁻¹
kon [4]: 442000 M⁻¹ s⁻¹
EC50 [5]: 1.44 nM
Kd [6]: 0.424 nM
koff [6]: 0.000136 s⁻¹
kon [6]: 321000 M⁻¹ s⁻¹
B2: BGA-3726 in human full-length format (human IgG1 variant IgG1mf / kappa) (antibody, V domains shown)
VH: B1 VH
VL: EIVLTQSPGTLSLSPGERATLSCRTSQSINGILLAWYQQKPGQAPRLLIYGASSRATGIPDRFSGSGSGTDFTLSISRLEPEDFAVYYCQQYGSSPRTFGQGTKVEIKR

Kd [6]: 0.632 nM
koff [6]: 0.000199 s⁻¹
kon [6]: 315000 M⁻¹ s⁻¹
B3: BGA-4498 (BGA-3726 variant comprising W96Y in HCDR3) (antibody, human IgG1, kappa, V domains shown)
VH: B1 VH with W100Y
VL: B2 VL

kon [6]: 142000 M⁻¹ s⁻¹
B4: BGA-4269 (BGA-3726 variant comprising W98Y in HCDR3) (antibody, human IgG1, kappa, V domains shown)
VH: B1 VH with W102Y
VL: B2 VL

Kd [6]: 0.596 nM
koff [6]: 0.000171 s⁻¹
kon [6]: 288000 M⁻¹ s⁻¹
B5: BGA-4826 (BGA-3726 variant comprising W34Y in HCDR1) (antibody, human IgG1, kappa, V domains shown)
VH: B1 VH with W34Y
VL: B2 VL

Kd [6]: 0.635 nM
koff [6]: 0.000237 s⁻¹
kon [6]: 373000 M⁻¹ s⁻¹
B6: BGA-4380 (BGA-3726 variant comprising N29Q in LCDR1) (antibody, human IgG1, kappa, V domains shown)
VH: B1 VH
VL: B2 VL with N30Q

EC50 [7]: 1.19 nM
Kd [4]: 0.443 nM
koff [4]: 0.000224 s⁻¹
kon [4]: 506000 M⁻¹ s⁻¹
B7: BGA-6938 (W34Y in HCDR1, W96Y in HCDR3 and G30A in LCDR1 based on BGA-3726), human IgG1 variant IgG1mf / kappa format (antibody, V domains shown)
VH: B1 VH with W34Y, W100Y
VL: B2 VL with G31A

EC50 [7]: 1.45 nM
Kd [4]: 1.11 nM
koff [4]: 0.000326 s⁻¹
kon [4]: 295000 M⁻¹ s⁻¹
B8: BGA-5488 (W34Y in HCDR1, W96Y and W98Y in HCDR3 and G30A in LCDR1 based on BGA-3726) (antibody, human IgG1, kappa, V domains shown)
VH: B1 VH with W34Y, W100Y, W102Y
VL: B2 VL with G31A

Kd [6]: 0.308 nM
koff [6]: 0.000128 s⁻¹
kon [6]: 414000 M⁻¹ s⁻¹
B9: BGA-4265 (BGA-3726 variant comprising G30A in LCDR1) (antibody, human IgG1, kappa, V domains shown)
VH: B1 VH
VL: B2 VL with G31A
